Test results published in US20170254807.

B1: Fc-D3 (mBetacam D3 domain, aa 240-335, fused to human IgG1 Fc; pFUSE-Fc-D3) (protein)
chain: YGPYGLQVNSDKGLKVGEVFTVDLGEAVLFDCSADSYPPNTYSWIQRSDNTTHVIKHGPHLEVASEKVAQKTADYVCCAYNNITGRRDETRFTVII
B2: Fc-D1/D2 (mBetacam D1-D2 domain, aa 33-239, fused to human IgG1 Fc; pFUSE-Fc-D1/D2) (protein)
chain: LKVTVPSYTVHGIRGQALYLPVHYGFHTPASDIQIIWLFERSHTMPKYLLGSVNKSVVPDLEYQHKFTMMPPNASLLINPLQFTDEGNYIVKVNIQGNGTLSASQKIQVTVDDPVMKPMVQFHPASGAVEYVGNITLTCQVEGGTRLVYQWRKSGKPISINSSHSFSPQNNTLWIVPVTKEDIGNYTCLVSNPVSEMESDIIMPTIY

Columns and labels:
[1] = bead aggregation assay, flow cytometry, experiment 1, before the 90 min incubation
[2] = bead aggregation assay, fluorescence microscopy

Protein	P3 (aggregates) prior to incubation [1]	aggregate size [2]
B1	P3 prior to incubation is 40.8%	
B2		Aggregates of >100 beads were observed
